Laboratory results taken from the supplement of paper PMC9112550, “Optimization of the antimicrobial peptide Bac7 by deep mutational scanning” (BMC Biology, 2022).

Test system: Escherichia coli TOP10
Assay: shrunken log2 fold change of peptide-encoding DNA abundance (4.5 h post-induction vs induction); higher = less antimicrobial activity (less host growth inhibition)
Details: time post-induction: 4.5 h; library: site-saturation at positions 5, 18, 19, 20
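Note: peptides expressed intracellularly from a pBAD plasmid library in pooled LB shake-flask culture, induced with 0.3% L-arabinose, DNA abundance read by NGS, three biological replicates, DESeq2 with apeglm shrinkage.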

Row | Sequence | shrunken log2 fold change
1 | RRIRWRPPRLPRPRPRPIMMPRP | -0.312
2 | RRIRDRPPRLPRPRPRPIWNPRP | -0.0889
3 | RRIRDRPPRLPRPRPRPFTTPRP | -0.132
4 | RRIRRRPPRLPRPRPRPPFCPRP | 0.627
5 | RRIRKRPPRLPRPRPRPVMTPRP | 0.0351
6 | RRIRKRPPRLPRPRPRPGFYPRP | 0.00129
7 | RRIRGRPPRLPRPRPRPGEPPRP | 0.276
8 | RRIRSRPPRLPRPRPRPVARPRP | 0.148
9 | RRIRARPPRLPRPRPRPHETPRP | 0.062
10 | RRIRARPPRLPRPRPRPWWGPRP | 3.62
11 | RRIRFRPPRLPRPRPRPSRDPRP | 1.18
12 | RRIRNRPPRLPRPRPRPFGLPRP | -0.231
13 | RRIRCRPPRLPRPRPRPQQCPRP | -0.219
14 | RRIRMRPPRLPRPRPRPWTKPRP | -0.0384
15 | RRIRVRPPRLPRPRPRPNLYPRP | -0.563
16 | RRIRGRPPRLPRPRPRPVISPRP | 0.623
17 | RRIRQRPPRLPRPRPRPRTPPRP | 0.676
18 | RRIRMRPPRLPRPRPRPLMWPRP | 0.268
19 | RRIRKRPPRLPRPRPRPQYVPRP | -0.143
20 | RRIRGRPPRLPRPRPRPIHHPRP | -0.0166
21 | RRIRGRPPRLPRPRPRPEVQPRP | 1.71
22 | RRIRFRPPRLPRPRPRPQGKPRP | -0.227
23 | RRIRSRPPRLPRPRPRPGHMPRP | 0.0805
24 | RRIRYRPPRLPRPRPRPANFPRP | 0.0515
25 | RRIRERPPRLPRPRPRPLKNPRP | -0.477

Row | Sequence | shrunken log2 fold change
26 | RRIRRRPPRLPRPRPRPHYLPRP | -0.156
27 | RRIRMRPPRLPRPRPRPRRFPRP | 0.339
28 | RRIRHRPPRLPRPRPRPELTPRP | 0.054
29 | RRIRSRPPRLPRPRPRPWFAPRP | -0.00302
30 | RRIRSRPPRLPRPRPRPDPGPRP | 0.246
31 | RRIRSRPPRLPRPRPRPDAHPRP | 0.0464
32 | RRIRCRPPRLPRPRPRPLMPPRP | -0.151
33 | RRIRCRPPRLPRPRPRPTPFPRP | 0.207
34 | RRIRLRPPRLPRPRPRPSYWPRP | -0.651
35 | RRIRRRPPRLPRPRPRPRNEPRP | 0.18
36 | RRIRMRPPRLPRPRPRPEFRPRP | 0.275
37 | RRIRTRPPRLPRPRPRPHNRPRP | -0.0489
38 | RRIRQRPPRLPRPRPRPVDVPRP | -0.208
39 | RRIRFRPPRLPRPRPRPCRRPRP | 0.122
40 | RRIRERPPRLPRPRPRPTNVPRP | -0.387
41 | RRIRYRPPRLPRPRPRPDLMPRP | -0.107
42 | RRIRIRPPRLPRPRPRPCVDPRP | -0.0909
43 | RRIRRRPPRLPRPRPRPPTIPRP | 0.324
44 | RRIRGRPPRLPRPRPRPNPSPRP | 0.294
45 | RRIRKRPPRLPRPRPRPHMGPRP | -0.0935
46 | RRIRMRPPRLPRPRPRPDCGPRP | -0.167
47 | RRIRDRPPRLPRPRPRPGQIPRP | 0.0221
48 | RRIRDRPPRLPRPRPRPKSCPRP | -0.0117
49 | RRIRHRPPRLPRPRPRPMMSPRP | 0.0372
50 | RRIRTRPPRLPRPRPRPVILPRP | -0.994

Row | Sequence | shrunken log2 fold change
51 | RRIRLRPPRLPRPRPRPFHIPRP | -0.292
52 | RRIRRRPPRLPRPRPRPEHDPRP | 0.356
53 | RRIRNRPPRLPRPRPRPYLVPRP | -0.161
54 | RRIRGRPPRLPRPRPRPFRTPRP | -0.0333
55 | RRIRQRPPRLPRPRPRPAHPPRP | 0.181
56 | RRIRARPPRLPRPRPRPYQSPRP | -0.0285
57 | RRIRYRPPRLPRPRPRPRWPPRP | 0.498
58 | RRIRWRPPRLPRPRPRPVNPPRP | 0.0699
59 | RRIRRRPPRLPRPRPRPNRVPRP | -0.0133
60 | RRIRQRPPRLPRPRPRPSCGPRP | 0.117
61 | RRIRCRPPRLPRPRPRPVWDPRP | -0.107
62 | RRIRMRPPRLPRPRPRPASCPRP | 0.629
63 | RRIRFRPPRLPRPRPRPGECPRP | -0.228
64 | RRIRARPPRLPRPRPRPDPFPRP | 0.0855
65 | RRIRNRPPRLPRPRPRPMMYPRP | 0.025
66 | RRIRCRPPRLPRPRPRPIVRPRP | -0.793
67 | RRIRERPPRLPRPRPRPCGIPRP | 0.00383
68 | RRIRGRPPRLPRPRPRPICNPRP | 0.645
69 | RRIRHRPPRLPRPRPRPNVPPRP | -0.0223
70 | RRIRHRPPRLPRPRPRPVWTPRP | -0.225
71 | RRIRNRPPRLPRPRPRPGICPRP | 0.122
72 | RRIRTRPPRLPRPRPRPHQCPRP | 0.021
73 | RRIRTRPPRLPRPRPRPEHLPRP | -0.00973
74 | RRIRCRPPRLPRPRPRPQDEPRP | -0.0478
75 | RRIRQRPPRLPRPRPRPHCTPRP | 0.157

Row | Sequence | shrunken log2 fold change
76 | RRIRDRPPRLPRPRPRPHVKPRP | -0.205
77 | RRIRFRPPRLPRPRPRPWCWPRP | 0.155
78 | RRIRERPPRLPRPRPRPVYSPRP | -0.409
79 | RRIRLRPPRLPRPRPRPKEMPRP | 0.0765
80 | RRIRHRPPRLPRPRPRPGVYPRP | -0.138
81 | RRIRSRPPRLPRPRPRPNFPPRP | 0.0832
82 | RRIRARPPRLPRPRPRPESHPRP | 1.04
83 | RRIRERPPRLPRPRPRPGENPRP | 0.00425
84 | RRIRDRPPRLPRPRPRPYMKPRP | -0.152
85 | RRIRSRPPRLPRPRPRPLCPPRP | -0.0602
86 | RRIRSRPPRLPRPRPRPHFQPRP | -0.275
87 | RRIRDRPPRLPRPRPRPGVPPRP | 0.000778
88 | RRIRSRPPRLPRPRPRPRLQPRP | 0.307
89 | RRIRFRPPRLPRPRPRPYNHPRP | -1.2
90 | RRIRKRPPRLPRPRPRPMGFPRP | -0.00871
91 | RRIRCRPPRLPRPRPRPIDMPRP | -0.175
92 | RRIRYRPPRLPRPRPRPYDAPRP | -0.129
93 | RRIRDRPPRLPRPRPRPFNMPRP | -0.186
94 | RRIRSRPPRLPRPRPRPVSVPRP | 0.0162
95 | RRIRERPPRLPRPRPRPAQHPRP | 0.124
96 | RRIRARPPRLPRPRPRPLHKPRP | 0.408
97 | RRIRSRPPRLPRPRPRPKMIPRP | -0.292
98 | RRIRDRPPRLPRPRPRPMCPPRP | 0.00942
99 | RRIRDRPPRLPRPRPRPCTHPRP | -0.0766
100 | RRIRQRPPRLPRPRPRPDWNPRP | -0.189

Row | Sequence | shrunken log2 fold change
101 | RRIRFRPPRLPRPRPRPYEAPRP | -0.493
102 | RRIRFRPPRLPRPRPRPEDTPRP | 0.144
103 | RRIRDRPPRLPRPRPRPLEQPRP | 0.57
104 | RRIRSRPPRLPRPRPRPFQGPRP | -0.0569
105 | RRIRQRPPRLPRPRPRPTKEPRP | 0.0425
106 | RRIRRRPPRLPRPRPRPMWDPRP | 0.164
107 | RRIRDRPPRLPRPRPRPRCIPRP | -0.0108
108 | RRIRCRPPRLPRPRPRPRNNPRP | -0.282
109 | RRIRYRPPRLPRPRPRPDRDPRP | -0.109
110 | RRIRRRPPRLPRPRPRPHYNPRP | -0.202
111 | RRIRQRPPRLPRPRPRPPTVPRP | -0.225
112 | RRIRKRPPRLPRPRPRPILVPRP | 0.0199
113 | RRIRCRPPRLPRPRPRPCVWPRP | -0.013
114 | RRIRMRPPRLPRPRPRPSELPRP | 0.12
115 | RRIRMRPPRLPRPRPRPRVTPRP | 0.467
116 | RRIRERPPRLPRPRPRPFNQPRP | -0.279
117 | RRIRERPPRLPRPRPRPFRGPRP | -0.11
118 | RRIRYRPPRLPRPRPRPCGCPRP | -0.0582
119 | RRIRIRPPRLPRPRPRPGAYPRP | -0.33
120 | RRIRPRPPRLPRPRPRPWQMPRP | 0.0571
121 | RRIRVRPPRLPRPRPRPFWHPRP | -0.205
122 | RRIRWRPPRLPRPRPRPFRCPRP | -0.257
123 | RRIRCRPPRLPRPRPRPNFSPRP | -0.382
124 | RRIRERPPRLPRPRPRPKYGPRP | -0.567
125 | RRIRVRPPRLPRPRPRPHSKPRP | -0.496

Row | Sequence | shrunken log2 fold change
126 | RRIRWRPPRLPRPRPRPNFRPRP | 0.298
127 | RRIRTRPPRLPRPRPRPTHKPRP | -0.0156
128 | RRIRRRPPRLPRPRPRPDVWPRP | 0.611
129 | RRIRSRPPRLPRPRPRPSNIPRP | -0.484
130 | RRIRDRPPRLPRPRPRPAFHPRP | -0.193
131 | RRIRERPPRLPRPRPRPYIHPRP | -0.17
132 | RRIRGRPPRLPRPRPRPITNPRP | 0.201
133 | RRIRQRPPRLPRPRPRPHKGPRP | -0.214
134 | RRIRTRPPRLPRPRPRPTSGPRP | 0.0562
135 | RRIRLRPPRLPRPRPRPPNFPRP | 0.0275
136 | RRIRSRPPRLPRPRPRPPQIPRP | 0.138
137 | RRIRARPPRLPRPRPRPDMVPRP | 0.308
138 | RRIRKRPPRLPRPRPRPVTLPRP | 0.163
139 | RRIRERPPRLPRPRPRPVYQPRP | -0.0713
140 | RRIRDRPPRLPRPRPRPMQIPRP | 0.0565
141 | RRIRDRPPRLPRPRPRPGMEPRP | 0.784
142 | RRIRPRPPRLPRPRPRPYDFPRP | -0.194
143 | RRIRWRPPRLPRPRPRPETSPRP | 0.7
144 | RRIRRRPPRLPRPRPRPSWFPRP | 0.165
145 | RRIRGRPPRLPRPRPRPWMRPRP | 0.444
146 | RRIRTRPPRLPRPRPRPDDQPRP | -0.052
147 | RRIRSRPPRLPRPRPRPDGGPRP | -0.125
148 | RRIRWRPPRLPRPRPRPSNAPRP | -0.0613
149 | RRIRFRPPRLPRPRPRPICVPRP | -0.161
150 | RRIRARPPRLPRPRPRPYYWPRP | -0.77
